Measurements from publication PMC11748629, “Unidirectional MCM translocation away from ORC drives origin licensing” (Nature Communications, 2025).

T1: Orc3 (Saccharomyces cerevisiae, UniProt P54790 1-616)
T1 construct: Orc3, S. cerevisiae; Subunit of m1, written alone for the contacts seen in the structures; also called Orc3 subunit of ORC; source: S. cerevisiae strain ySD-ORC, purified as a subunit of ORC
T1 sequence: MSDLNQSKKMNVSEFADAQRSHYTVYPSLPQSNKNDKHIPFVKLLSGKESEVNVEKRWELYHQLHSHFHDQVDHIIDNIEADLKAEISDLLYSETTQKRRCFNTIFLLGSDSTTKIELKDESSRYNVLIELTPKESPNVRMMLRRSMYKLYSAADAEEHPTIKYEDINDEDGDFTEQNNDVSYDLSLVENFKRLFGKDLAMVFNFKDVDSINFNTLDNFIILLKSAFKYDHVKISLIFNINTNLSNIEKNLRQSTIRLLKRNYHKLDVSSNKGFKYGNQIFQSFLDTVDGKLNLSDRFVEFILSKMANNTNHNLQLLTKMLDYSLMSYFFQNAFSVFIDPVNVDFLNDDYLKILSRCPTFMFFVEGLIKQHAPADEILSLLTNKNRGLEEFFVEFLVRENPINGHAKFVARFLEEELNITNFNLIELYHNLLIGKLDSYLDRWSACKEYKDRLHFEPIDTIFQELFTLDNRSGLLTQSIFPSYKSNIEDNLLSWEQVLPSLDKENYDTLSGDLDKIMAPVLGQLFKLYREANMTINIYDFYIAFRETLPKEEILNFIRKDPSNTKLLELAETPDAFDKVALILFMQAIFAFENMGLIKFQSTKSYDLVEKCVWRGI

T2: Orc1 (Saccharomyces cerevisiae, UniProt P54784 1-914)
T2 construct: Orc1, S. cerevisiae; Subunit of m1, written alone for the contacts seen in the structures; also called Orc1 subunit of ORC; source: S. cerevisiae strain ySD-ORC, purified as a subunit of ORC
T2 sequence: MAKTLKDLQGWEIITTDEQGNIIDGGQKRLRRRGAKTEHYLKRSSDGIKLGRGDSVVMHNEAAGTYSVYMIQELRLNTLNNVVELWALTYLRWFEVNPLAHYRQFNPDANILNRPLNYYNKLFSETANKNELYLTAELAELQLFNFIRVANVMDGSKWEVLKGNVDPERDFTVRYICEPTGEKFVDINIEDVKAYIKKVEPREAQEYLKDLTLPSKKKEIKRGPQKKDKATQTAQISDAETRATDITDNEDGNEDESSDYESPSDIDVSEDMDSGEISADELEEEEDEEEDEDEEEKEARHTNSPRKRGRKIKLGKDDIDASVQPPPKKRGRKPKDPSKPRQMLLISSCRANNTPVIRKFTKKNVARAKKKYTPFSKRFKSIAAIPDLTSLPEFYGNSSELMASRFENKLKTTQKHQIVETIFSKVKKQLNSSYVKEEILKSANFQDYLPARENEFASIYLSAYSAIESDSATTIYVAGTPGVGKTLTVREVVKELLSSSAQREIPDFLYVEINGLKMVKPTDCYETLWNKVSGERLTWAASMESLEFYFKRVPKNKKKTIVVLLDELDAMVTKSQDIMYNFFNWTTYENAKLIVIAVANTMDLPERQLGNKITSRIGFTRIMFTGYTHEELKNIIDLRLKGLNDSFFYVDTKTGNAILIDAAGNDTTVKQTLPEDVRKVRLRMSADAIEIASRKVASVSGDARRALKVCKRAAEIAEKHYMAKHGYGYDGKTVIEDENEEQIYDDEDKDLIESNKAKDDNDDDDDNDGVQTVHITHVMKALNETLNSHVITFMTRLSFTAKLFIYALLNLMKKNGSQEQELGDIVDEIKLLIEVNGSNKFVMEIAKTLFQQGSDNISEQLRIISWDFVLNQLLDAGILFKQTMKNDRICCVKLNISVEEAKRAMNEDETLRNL

B1: Orc5 (natural protein, Saccharomyces cerevisiae)
chain: MNVTTPEVAFREYQTNCLASYISADPDITPSNLILQGYSGTGKTYTLKKYFNANPNLHAVWLEPVELVSWKPLLQAIARTVQYKLKTLYPNIPTTDYDPLQVEEPFLLVKTLHNIFVQYESLQEKTCLFLILDGFDSLQDLDAALFNKYIKLNELLPKDSKINIKFIYTMLETSFLQRYSTHCIPTVMFPRYNVDEVSTILVMSRCGELMEDSCLRKRIIEEQITDCTDDQFQNVAANFIHLIVQAFHSYTGNDIFALNDLIDFKWPKYVSRITKENIFEPLALYKSAIKLFLSTDDNLSENGQGESAITTNRDDLENSQTYDLSIISKYLLIASYICSYLEPRYDASIFSRKTRIIQGRAAYGRRKKKEVNPRYLQPSLFAIERLLAIFQAIFPIQGKAESGSLSALREESLMKANIEVFQNLSELHTLKLIATTMNKNIDYLSPKVRWKVNVPWEIIKEISESVHFNISDYFSDIHE
notes: Orc5, S. cerevisiae; Subunit of m1, written alone for the contacts seen in the structures; also called Orc5 subunit of ORC; source: S. cerevisiae strain ySD-ORC, purified as a subunit of ORC
B2: Saccharomyces cerevisiae Cdc6 (natural protein, UniProt P09119 1-513, looked up)
chain: MSAIPITPTKRIRRNLFDDAPATPPRPLKRKKLQFTDVTPESSPEKLQFGSQSIFLRTKALLQKSSELVNLNSSDGALPARTAEYEQVMNFLAKAISEHRSDSLYITGPPGTGKTAQLDMIIRQKFQSLPLSLSTPRSKDVLRHTNPNLQNLSWFELPDGRLESVAVTSINCISLGEPSSIFQKIFDSFQDLNGPTLQIKNMQHLQKFLEPYHKKTTFVVVLDEMDRLLHANTSETQSVRTILELFLLAKLPTVSFVLIGMANSLDMKDRFLSRLNLDRGLLPQTIVFQPYTAEQMYEIVIQKMSSLPTIIFQPMAIKFAAKKCAGNTGDLRKLFDVLRGSIEIYELEKRFLLSPTRGSLNSAQVPLTPTTSPVKKSYPEPQGKIGLNYIAKVFSKFVNNNSTRTRIAKLNIQQKLILCTIIQSLKLNSDATIDESFDHYIKAITKTDTLAPLQRNEFLEICTILETCGLVSIKKTKCKGKTKRFVDKIDVDLDMREFYDEMTKISILKPFLH
notes: Cdc6, S. cerevisiae; source: E. coli BL21(CodonPlus)-RIL, plasmid pAM3, purified (glutathione sepharose, preScission protease, hydroxyapatite)
B3: Orc4 (natural protein, Saccharomyces cerevisiae)
chain: MTISEARLSPQVNLLPIKRHSNEEVEETAAILKKRTIDNEKCKDSDPGFGSLQRRLLQQLYGTLPTDEKIIFTYLQDCQQEIDRIIKQSIIQKESHSVILVGPRQSYKTYLLDYELSLLQQSYKEQFITIRLNGFIHSEQTAINGIATQLEQQLQKIHGSEEKIDDTSLETISSGSLTEVFEKILLLLDSTTKTRNEDSGEVDRESITKITVVFIFDEIDTFAGPVRQTLLYNLFDMVEHSRVPVCIFGCTTKLNILEYLEKRVKSRFSQRVIYMPQIQNLDDMVDAVRNLLTVRSEISPWVSQWNETLEKELSDPRSNLNRHIRMNFETFRSLPTLKNSIIPLVATSKNFGSLCTAIKSCSFLDIYNKNQLSNNLTGRLQSLSDLELAILISAARVALRAKDGSFNFNLAYAEYEKMIKAINSRIPTVAPTTNVGTGQSTFSIDNTIKLWLKKDVKNVWENLVQLDFFTEKSAVGLRDNATAAFYASNYQFQGTMIPFDLRSYQMQIILQELRRIIPKSNMYYSWTQL
notes: Orc4, S. cerevisiae; Subunit of m1, written alone for the contacts seen in the structures; also called Orc4 subunit of ORC; source: S. cerevisiae strain ySD-ORC, purified as a subunit of ORC
B4: Mcm2 R676A (natural protein, Saccharomyces cerevisiae)
chain: MSDNRRRRREEDDSDSENELPPSSPQQHFRGGMNPVSSPIGSPDMINPEGDDNEVDDVPDIDEVEEQMNEVDLMDDNMYEDYAADHNRDRYDPDQVDDREQQELSLSERRRIDAQLNERDRLLRNVAYIDDEDEEQEGAAQLDEMGLPVQRRRRRRQYEDLENSDDDLLSDMDIDPLREELTLESLSNVKANSYSEWITQPNVSRTIARELKSFLLEYTDETGRSVYGARIRTLGEMNSESLEVNYRHLAESKAILALFLAKCPEEMLKIFDLVAMEATELHYPDYARIHSEIHVRISDFPTIYSLRELRESNLSSLVRVTGVVTRRTGVFPQLKYVKFNCLKCGSILGPFFQDSNEEIRISFCTNCKSKGPFRVNGEKTVYRNYQRVTLQEAPGTVPPGRLPRHREVILLADLVDVSKPGEEVEVTGIYKNNYDGNLNAKNGFPVFATIIEANSIKRREGNTANEGEEGLDVFSWTEEEEREFRKISRDRGIIDKIISSMAPSIYGHRDIKTAVACSLFGGVPKNVNGKHSIRGDINVLLLGDPGTAKSQILKYVEKTAHRAVFATGQGASAVGLTASVRKDPITKEWTLEGGALVLADKGVCLIDEFDKMNDQDRTSIHEAMEQQSISISKAGIVTTLQARCSIIAAANPNGGRYNSTLPLAQNVSLTEPILSAFDILCVVRDLVDEEADERLATFVVDSHVRSHPENDEDREGEELKNNGESAIEQGEDEINEQLNARQRRLQRQRKKEEEISPIPQELLMKYIHYARTKIYPKLHQMDMDKVSRVYADLRRESISTGSFPITVRHLESILRIAESFAKMRLSEFVSSYDLDRAIKVVVDSFVDAQKVSVRRQLRRSFAIYTLGH
notes: Mcm2, S. cerevisiae; Subunit of m4, written alone for the contacts seen in OCCM^Mcm2RA; also called Mcm2RA; source: S. cerevisiae strain yGC216, purified as a subunit of MCM-Cdt1

Columns and labels:
Assay in all cases: cryo-EM structure; OCCM^Mcm2RA: 30 nM MH-ARS1-MH DNA, 60 nM ORC, 90 nM Cdc6, 60 nM MCM-Cdt1 (Mcm2 R676A), 3 mM ATP; 25 mM HEPES pH 7.6, 100 mM potassium chloride, 10 mM magnesium acetate, 1 mM DTT; 30 °C, 30 min; 3.3 Å consensus, 3.2 Å local refinements
Settings in all cases: both partners purified
Orc3 = target: T1, Orc3
Orc4 = target: B3
Orc1 = target: T2, Orc1
[1] = target: T3, Origin Recognition Complex (ORC) (Saccharomyces cerevisiae, UniProt P54784 1-914; P32833 1-620; P54790 1-616; P54791 1-529; P50874 1-479; P38826 …)
T3 construct: Orc1, S. cerevisiae; Orc2, S. cerevisiae; Orc3, S. cerevisiae; Orc4, S. cerevisiae; Orc5, S. cerevisiae; Orc6, S. cerevisiae; also called ORC complex; copies: + + + + +

Mcm6 = target: T4, Mcm6 (Saccharomyces cerevisiae, UniProt P53091 1-1017)
T4 construct: Mcm6, S. cerevisiae; Subunit of m4 and m7, written alone for the contacts seen in the structures; also called Mcm6 subunit of MCM; source: S. cerevisiae strains yGC216 and yGC226, purified as a subunit of MCM-Cdt1
T4 sequence (P53091 whole entry): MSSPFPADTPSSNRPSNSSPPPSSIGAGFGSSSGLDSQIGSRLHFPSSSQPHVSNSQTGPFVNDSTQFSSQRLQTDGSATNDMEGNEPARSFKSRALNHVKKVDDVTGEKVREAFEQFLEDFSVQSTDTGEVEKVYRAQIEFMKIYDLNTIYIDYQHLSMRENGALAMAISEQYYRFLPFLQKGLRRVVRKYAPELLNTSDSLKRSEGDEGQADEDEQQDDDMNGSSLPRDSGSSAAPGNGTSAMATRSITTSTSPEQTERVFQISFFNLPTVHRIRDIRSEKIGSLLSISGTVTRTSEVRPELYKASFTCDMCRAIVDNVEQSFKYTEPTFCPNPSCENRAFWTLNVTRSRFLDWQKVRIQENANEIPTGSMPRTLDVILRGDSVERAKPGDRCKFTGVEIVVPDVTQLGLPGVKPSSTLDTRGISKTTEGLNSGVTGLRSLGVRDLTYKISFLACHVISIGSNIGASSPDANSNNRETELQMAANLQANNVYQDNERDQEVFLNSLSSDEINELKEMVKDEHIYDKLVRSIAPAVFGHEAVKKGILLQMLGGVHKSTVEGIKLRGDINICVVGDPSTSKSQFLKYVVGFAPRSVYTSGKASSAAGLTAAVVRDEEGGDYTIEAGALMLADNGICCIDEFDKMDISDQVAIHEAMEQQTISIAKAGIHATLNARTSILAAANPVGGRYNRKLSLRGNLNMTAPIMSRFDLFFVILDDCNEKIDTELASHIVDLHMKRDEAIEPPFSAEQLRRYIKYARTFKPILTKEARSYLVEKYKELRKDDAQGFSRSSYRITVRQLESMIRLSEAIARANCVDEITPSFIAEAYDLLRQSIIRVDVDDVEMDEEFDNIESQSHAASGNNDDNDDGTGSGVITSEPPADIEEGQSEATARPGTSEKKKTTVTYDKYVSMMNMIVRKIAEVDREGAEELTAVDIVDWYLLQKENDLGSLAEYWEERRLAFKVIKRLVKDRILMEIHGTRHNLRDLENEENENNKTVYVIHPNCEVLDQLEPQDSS

T3 sequence (P32833 whole entry, chain 2 of 2): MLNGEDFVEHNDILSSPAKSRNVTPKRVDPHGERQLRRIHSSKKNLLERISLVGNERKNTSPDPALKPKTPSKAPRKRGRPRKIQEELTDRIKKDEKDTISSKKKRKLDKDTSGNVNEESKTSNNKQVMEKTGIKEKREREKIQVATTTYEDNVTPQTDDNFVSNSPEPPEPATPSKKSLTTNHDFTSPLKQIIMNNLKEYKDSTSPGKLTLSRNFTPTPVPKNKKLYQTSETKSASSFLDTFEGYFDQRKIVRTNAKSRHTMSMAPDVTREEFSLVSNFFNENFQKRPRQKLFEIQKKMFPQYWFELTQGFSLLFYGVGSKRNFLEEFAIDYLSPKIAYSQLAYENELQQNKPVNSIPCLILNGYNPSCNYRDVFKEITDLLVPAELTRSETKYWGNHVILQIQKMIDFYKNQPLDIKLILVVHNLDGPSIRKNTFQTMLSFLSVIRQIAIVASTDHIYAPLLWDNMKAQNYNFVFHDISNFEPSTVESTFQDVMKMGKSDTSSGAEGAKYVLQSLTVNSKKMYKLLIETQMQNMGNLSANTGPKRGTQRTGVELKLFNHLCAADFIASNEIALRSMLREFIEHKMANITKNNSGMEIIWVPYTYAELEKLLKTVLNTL
T3 sequence (P38826 whole entry, chain 6 of 2): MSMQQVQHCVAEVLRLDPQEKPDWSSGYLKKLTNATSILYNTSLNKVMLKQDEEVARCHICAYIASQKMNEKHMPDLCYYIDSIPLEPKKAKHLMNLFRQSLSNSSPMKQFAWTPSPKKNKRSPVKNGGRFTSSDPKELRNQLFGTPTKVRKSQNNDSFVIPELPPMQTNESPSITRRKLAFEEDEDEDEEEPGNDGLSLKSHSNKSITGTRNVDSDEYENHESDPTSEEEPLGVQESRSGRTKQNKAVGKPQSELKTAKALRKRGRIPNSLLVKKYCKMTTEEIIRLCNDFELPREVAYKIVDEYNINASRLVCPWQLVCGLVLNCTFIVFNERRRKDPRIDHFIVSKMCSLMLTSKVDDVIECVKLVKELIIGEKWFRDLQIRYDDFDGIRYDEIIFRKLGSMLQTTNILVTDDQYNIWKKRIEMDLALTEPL

## B1
Orc3
  binding result: binds
Orc4
  binding result: binds

## B2
Orc1
  binding result: binds
[1]
  binding result: binds

## B3
Orc1
  binding result: binds

## B4
Mcm6
  binding result: binds
